The target of experiment [1] is T1, human Kell glycoprotein, Kp^a (KEL3) form (human, UniProt P23276 1-732).
T1 construct: whole, on cells; also called Kp^a/Kp^a RBCs
T1 sequence (looked up): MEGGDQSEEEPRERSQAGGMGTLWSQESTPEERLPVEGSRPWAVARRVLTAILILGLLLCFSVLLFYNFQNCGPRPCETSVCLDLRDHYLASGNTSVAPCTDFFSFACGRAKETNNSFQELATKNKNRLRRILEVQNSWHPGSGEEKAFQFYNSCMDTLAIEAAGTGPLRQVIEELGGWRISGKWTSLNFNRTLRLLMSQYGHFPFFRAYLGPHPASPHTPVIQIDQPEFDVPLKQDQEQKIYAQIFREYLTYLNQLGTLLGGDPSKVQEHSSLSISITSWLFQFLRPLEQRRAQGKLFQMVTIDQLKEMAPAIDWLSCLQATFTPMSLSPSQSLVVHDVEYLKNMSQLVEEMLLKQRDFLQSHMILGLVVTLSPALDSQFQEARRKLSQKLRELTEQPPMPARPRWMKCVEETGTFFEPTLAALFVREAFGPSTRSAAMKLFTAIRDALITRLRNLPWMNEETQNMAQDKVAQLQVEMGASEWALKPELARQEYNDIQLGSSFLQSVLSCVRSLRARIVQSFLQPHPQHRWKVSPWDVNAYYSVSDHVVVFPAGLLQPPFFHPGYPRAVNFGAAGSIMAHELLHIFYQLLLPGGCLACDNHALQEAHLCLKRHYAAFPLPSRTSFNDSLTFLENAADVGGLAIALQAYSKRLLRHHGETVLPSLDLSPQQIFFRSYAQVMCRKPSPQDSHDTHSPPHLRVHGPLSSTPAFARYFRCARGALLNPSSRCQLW
Briefly: flow cytometry, indirect immunofluorescence on RBCs. As for the experimental part: (§1) The specificities of the antibodies are shown in FIGS. 7A, 7B, 8A, 8B, 9A-9C, and 10A-10I. The specificities of the antibodies were determined to be: PUMA1/2 (KEL1 or K), PUMA 3 (a common Kell epitope, PUMA 4 (KEL4 or Kp^b). Flow cytometry was utilized to test antibody specificity by indirect immunofluorescence, using the monocolonal antibodies as the primary reagent and a goat-anti-mouse antibody (conjugated to allophycocyanin) as a secondary antibody. Different target cells expressing different Kell variants were used to determine specificity. Targets included RBCs that phenotyped as homozygous for the 3 main antithetical antigens in the Kell system, K/K, k/k, Kp^b/Kp^b, Kp^a/Kp^a, Js^b/Js^b, Js^a/Js^a. Differential binding to such tarets tests specificity. In the case of PUMA ½, binding was only observed when K was present but not on k/k RBCs. In the case of PUMA 3, binding was observed on all RBCs regardless of phenotype for K/k, Kp^a/Kp^b, or Js^a/Js^b, thus indicating a common epitope outside these systems. However, PUMA 3 bound to only KELL glycoprotein transgenic murine RBCs and not wild-type murine RBCs; thus, the epitope recognized by PUMA 3 is on the KELL molecule, but not K/k, Kp^a/Kp^b, or Js^a/Js^b. For PUMA 4, binding was only observed when Kp^b was present but not on Kp^a/Kp^a RBCs.

In experiment [2] the target is T2, human Kell glycoprotein, k (KEL2) form (human, UniProt P23276 1-732).
T2 construct: also called k form; k/k RBCs
T2 sequence: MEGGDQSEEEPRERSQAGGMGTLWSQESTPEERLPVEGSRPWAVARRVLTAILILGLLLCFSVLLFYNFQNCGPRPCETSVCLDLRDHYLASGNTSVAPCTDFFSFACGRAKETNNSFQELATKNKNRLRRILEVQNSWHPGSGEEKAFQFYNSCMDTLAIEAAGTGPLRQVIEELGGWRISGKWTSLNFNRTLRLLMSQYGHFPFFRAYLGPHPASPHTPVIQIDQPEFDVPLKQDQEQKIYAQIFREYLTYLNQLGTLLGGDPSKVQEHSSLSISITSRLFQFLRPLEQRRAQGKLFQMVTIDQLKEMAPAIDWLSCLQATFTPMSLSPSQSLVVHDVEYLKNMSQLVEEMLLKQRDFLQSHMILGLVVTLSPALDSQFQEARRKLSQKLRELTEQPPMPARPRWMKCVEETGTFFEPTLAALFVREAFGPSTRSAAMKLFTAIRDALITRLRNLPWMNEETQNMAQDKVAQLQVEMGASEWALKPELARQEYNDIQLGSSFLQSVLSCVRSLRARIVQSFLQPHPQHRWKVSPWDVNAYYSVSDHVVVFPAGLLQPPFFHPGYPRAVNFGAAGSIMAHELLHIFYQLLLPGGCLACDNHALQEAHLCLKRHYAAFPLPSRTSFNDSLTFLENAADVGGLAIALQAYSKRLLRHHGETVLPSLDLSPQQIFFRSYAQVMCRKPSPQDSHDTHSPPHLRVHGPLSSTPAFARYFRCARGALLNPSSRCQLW
The description is as above. The procedure:
as §1

Experiment [3] addresses T3, human Kell glycoprotein transgene (KEL1, Kp^b, Js^b variants) on murine RBCs (human, UniProt P23276 1-732).
T3 construct: whole, on cells; also called KELL glycoprotein transgenic murine RBCs; KEL1+RBCs
T3 sequence (looked up): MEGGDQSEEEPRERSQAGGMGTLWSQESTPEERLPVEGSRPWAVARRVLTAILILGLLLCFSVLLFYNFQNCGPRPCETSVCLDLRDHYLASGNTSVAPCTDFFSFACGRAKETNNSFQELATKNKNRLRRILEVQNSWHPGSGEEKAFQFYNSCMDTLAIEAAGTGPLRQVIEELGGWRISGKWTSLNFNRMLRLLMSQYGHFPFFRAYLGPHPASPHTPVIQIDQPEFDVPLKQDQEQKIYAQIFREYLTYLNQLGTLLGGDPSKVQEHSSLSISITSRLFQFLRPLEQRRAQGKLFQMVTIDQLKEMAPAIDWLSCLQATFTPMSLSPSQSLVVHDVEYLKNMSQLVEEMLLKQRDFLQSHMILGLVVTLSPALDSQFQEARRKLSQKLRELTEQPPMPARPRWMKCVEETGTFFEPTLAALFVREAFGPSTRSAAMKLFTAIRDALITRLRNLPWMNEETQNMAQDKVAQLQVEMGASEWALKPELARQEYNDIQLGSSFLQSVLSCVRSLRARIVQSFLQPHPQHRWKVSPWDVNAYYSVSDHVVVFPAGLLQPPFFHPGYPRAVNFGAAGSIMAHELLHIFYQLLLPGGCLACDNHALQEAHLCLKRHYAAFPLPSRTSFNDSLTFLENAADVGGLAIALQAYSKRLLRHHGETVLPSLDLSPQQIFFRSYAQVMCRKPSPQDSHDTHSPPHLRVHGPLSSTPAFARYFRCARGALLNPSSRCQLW
The experiment can be described thus: in vivo, passive immunization of mice and transfusion of KEL1+ RBCs. As for the experimental part:
The ability of PUMA1 to induce a HTR was tested by passive immunization of wild-type mice with PUMA1 (by intravenous tail-vein injection), followed by transfusion with murine KEL1+RBCs from KEL1 transgeneic mouse donors. Compared to a control group that got only PBS, PUMA1 caused a brisk clearance of KEL1+RBCs, after which, the surviving RBCs continued to circulate, as is typical of HTRs in both mice and also in humans (FIG. 13). Thus, PUMA1 specifically binds to KEL1 RBCs, in vivo, with sufficient activity to induce an HTR.

Experiment [4] has as its target T4, human Kell glycoprotein, K (KEL1) form (human, UniProt P23276 1-732).
T4 construct: whole, on cells; also called K form of the Kell glycoprotein; K/K RBCs
T4 sequence (looked up): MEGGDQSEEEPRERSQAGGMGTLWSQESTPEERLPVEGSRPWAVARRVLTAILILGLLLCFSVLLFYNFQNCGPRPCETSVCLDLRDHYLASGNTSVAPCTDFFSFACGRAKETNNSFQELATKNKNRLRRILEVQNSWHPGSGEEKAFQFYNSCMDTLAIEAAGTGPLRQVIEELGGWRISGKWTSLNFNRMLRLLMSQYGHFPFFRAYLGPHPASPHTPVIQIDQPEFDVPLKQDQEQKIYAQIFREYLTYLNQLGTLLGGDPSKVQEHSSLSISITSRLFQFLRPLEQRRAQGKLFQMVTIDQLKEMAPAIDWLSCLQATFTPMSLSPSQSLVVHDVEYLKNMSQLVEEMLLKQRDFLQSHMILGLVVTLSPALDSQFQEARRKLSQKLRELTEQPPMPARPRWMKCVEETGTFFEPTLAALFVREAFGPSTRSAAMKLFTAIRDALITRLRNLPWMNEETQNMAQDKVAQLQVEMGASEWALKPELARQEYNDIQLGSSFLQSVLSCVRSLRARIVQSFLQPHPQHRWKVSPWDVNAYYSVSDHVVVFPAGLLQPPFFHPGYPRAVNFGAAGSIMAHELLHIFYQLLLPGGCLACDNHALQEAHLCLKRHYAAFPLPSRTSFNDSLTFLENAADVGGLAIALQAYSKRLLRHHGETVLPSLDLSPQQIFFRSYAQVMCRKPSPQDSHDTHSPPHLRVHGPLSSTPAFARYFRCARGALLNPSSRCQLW
Briefly: flow cytometry on RBCs (FIGS. 7A, 7B). The procedure:
as §1

In experiment [5] the target is T2, human Kell glycoprotein, k (KEL2) form. The experiment can be described thus: flow cytometry, indirect immunofluorescence on k/k RBCs. As for the experimental part: as §1
Experiment [6] concerns the target T4, human Kell glycoprotein, K (KEL1) form. The experiment can be described thus: flow cytometry, indirect immunofluorescence on K/K RBCs. The procedure: as §1
Background: Flow cytometry measures light scatter and fluorescence of single cells or particles in a stream.

The target in experiment [7] is T3, human Kell glycoprotein transgene …. The experiment can be described thus: flow cytometry, indirect immunofluorescence on transgenic murine RBCs. The procedure:
as §1

B1: monoclonal antibody PUMA 4 (antibody, V domains shown)
VH: EVKLEESGGGLVQPGGSMKLSCVASGFTFSNYWMNWVRQPPEKGLEWVAEIRLNSNNYATHYAESVKGKFTISRDDSKSSVYLQMNDLRAEDTGIYYCTRNWDFAWFDSWGQGTLVTVSA
VL: DIVMTQSHKFMSTSVGDRVSITCKASQDVSTVVAWYQQKPGQSPKLLIYWASTRHTGVPDRFTGSGSGTDYTLTISSVQAEDLALYYCQQHYTTPFTFGSGTKLEIK
notes: Mouse monoclonal antibody from hybridoma
As to B1, the binding result in experiment [1] is “no binding”.

B2: monoclonal antibody PUMA 1 (antibody, V domains shown)
VH: EVQLQQSGPELVKPGASVKMSCKASGYTFTDYYMKWVKQSHGKSLEWIGDLNPNNGDTFYNQKFKGKATLTVDKSSSTAYIQLNSLTSEDSAVYYCAREAGSSFGSSCNYWGQGTTLTVS
VL: SVVMTQTPKFLLVSAGDRVTITCKASQTVSKDVAWYQQQPGQSPKLLIYYASNRYTGVPDRFTGSGYGTDFTFTISTVQAEDLAVYFCQQDYSSPYTFGGGTKLEIK
notes: also called PUMA 2; Puma 2
B2: the binding result in experiment [2] is “no binding”; in experiment [3], “binds”; in experiment [4], “binds”.

B3: monoclonal antibody PUMA 3 (antibody, V domains shown)
VH: QVQLKESGPGLLAPSQSLSITCTVSGFSLTSYGVYWVRQPPGKGLEWLGIIWGDGSTNYQSVLRSRLSITKDDSKSQVFLKLNSLQTDDTATYYCAKRGDYDVAYWGQGTLVTVSA
VL: DIVLTQSPASLAVSLGQRAIISCKASQTVSEVGTSLMHWYQQRPGQQPKLLIYRTSNLEAGVPTRFSGSGSRTDFTLNIHPVEEDDAATYYCQQSREFPWTFGGGTRLEIK
notes: as for B1
For the molecule B3, the binding result in experiment [5], in experiment [6] and in experiment [7] was “binds” each time.

The values are drawn from patent US10253109 (BLOODWORKS, dated 2019).
